From doi:10.1101/2023.04.11.536446

Molecular target: Langya virus fusion protein (LayV-F) ectodomain, uncleaved (Langya virus)
Test: cryo-EM structure

In the case of “Langya virus fusion protein (LayV-F) ectodomain, uncleaved (domain or fragment)”, the stoichiometry N is reported as 3.
